For one experiment, the system named is 4T1 tumors. The experiment in a line: 4T1 mouse triple negative breast cancer model in Balb/C mice. Particulars: 6D9 10 mg/kg, gemcitabine 75 mg/kg, i.p., days 5, 8, 12, 14, 16. The class given is in vivo. The method, then: 6-8 week-old Balb/C mice were injected with 0.1 million of 4T1 cells in the mammary fat pad. On day 5, mice were randomized to 4 treatment groups, PBS, 6D9 (10 mg/kg), Gemcitabine (75 mg/kg), and 6D9 (10 mg/kg) plus gemcitabine (75 mg/kg). All treatments were by intraperitoneal injection and mice received a total of 5 treatments on days 5, 8, 12, 14, and 16.
The tumors and lymph nodes were harvested from these mice, and cells were dissociated and subjected to immune cell profiling by flow cytometry analysis.

In another experiment the test system is KLN205 tumors. As to the kind of experiment: KLN205 syngeneic mouse lung squamous tumor model in DBA2 mice. The class given is in vivo. The settings on record: for KLN205 primary tumor growth, isotype comparison: Example 15, 200 μg (10 mg/kg) i.p. from day 9. The protocol: For the tumor study. 6-8 week-old female DBA2 mice were implanted subcutaneously in the right flank with 2.5×10^5 mouse lung squamous carcinoma KLN205 cells in 50% matrigel on day 0. Mice were treated with PBS as a vehicle control, a mouse IgG isotype control (10 mg/kg), or anti-VTCN1 6D9 antibody (10 mg/kg) on days 3, 6, 10, 13, 15, 17, 20, and 22 following tumor implantation by intraperitoneal (i.p.) injection. Tumors were measured using an electronic caliper twice a week and tumor volume was calculated using the formula 0.52*length*width*width. Mouse body weight was also measured and recorded.
6-8 week-old female DBA2 mice were implanted subcutaneously in the right flank with 2.5×10^5 mouse lung squamous carcinoma cell KLN205 cells in 50% matrigel on day 0. Tumors were measured on day 7 and mice are randomized to 7 treatment groups. The average size was 50 mm^3. The treatment groups were: PBS vehicle control, mIgG2a isotype control. 6D9, anti-mouse PD1 antibody RMP1-14, 6D9+RMP1-14, anti-mouse CTLA-4 antibody 9D9, and 6D9+9D9. The mice were treated on days 8, 11, 13, 15, 18, 20, 22, and 25. All antibodies were 10 mg/kg by i.p.
To test the activity of the 6D9 and 6D9-mIgG1 antibodies, 6-8 weeks old female DBA2 mice were implanted subcutaneously in the right flank with 0.2 million KLN205 cells in PBS on day 0. Mice were randomized on day 9 into 3 treatment groups, mIgG1 control. 6D9-mIgG1, 6D9-mIgG2a. Mice were treated on days 9, 11, 15, 18, and 22 by i.p. with 200 μg antibodies (10 mg/kg). […] However.

The next experiment deals with Hepa1-6 tumors. The experiment in a line: Hepa 1-6 mouse hepatoma tumor model. The class given is in vivo. The settings on record: 10 mg/kg ip. twice a week, 7 doses, from day 8. The protocol:
The same proteomics and immunohistochemistry analysis used in Example 1 and Example 12 were also used to analyze tumors harvested from mice subcutaneously injected with Hepa 1-6 mouse hepatoma cells, and these tumors were fount to express VTCN1. To test the efficacy of anti-VTCN1 antibodies in this alternate syngeneic tumor model, 6-8 week old C57BL/6 female mice were injected with 2.5 million Hepa1-6 cells in matrigel. On day 8 after tumor cell implantation, when tumors were 100-200 mm3, tumor-bearing mice were randomized to two treatment groups and received either the isotype control, mIgG2a or the anti-VTCN1 antibody 6D9. Treatment was started on day 8 with mice receiving 10 mg/kg of antibody by ip. injection. Mice were treated at this dose level and route twice a week for a total of 7 doses. Tumor volume and body weight were recorded twice a week.

A further experiment deals with T1, mouse VTCN1 protein (Mus musculus, UniProt Q7TSP5).
T1 construct: His
T1 sequence (Q7TSP5 25-257): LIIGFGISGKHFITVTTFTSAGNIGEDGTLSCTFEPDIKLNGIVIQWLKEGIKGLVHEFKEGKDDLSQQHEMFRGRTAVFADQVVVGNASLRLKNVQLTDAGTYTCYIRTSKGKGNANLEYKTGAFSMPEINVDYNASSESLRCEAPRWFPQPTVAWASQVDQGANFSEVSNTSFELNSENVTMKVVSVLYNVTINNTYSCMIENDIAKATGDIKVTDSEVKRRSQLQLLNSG
The experiment in a line: Cross-reactivity with mouse VTCN1 protein (method not given). The class given is binding.

For the next experiment, the target named is T2, human VTCN1 protein (Homo sapiens, UniProt Q7Z7D3).
T2 construct: His
T2 sequence (Q7Z7D3 25-282): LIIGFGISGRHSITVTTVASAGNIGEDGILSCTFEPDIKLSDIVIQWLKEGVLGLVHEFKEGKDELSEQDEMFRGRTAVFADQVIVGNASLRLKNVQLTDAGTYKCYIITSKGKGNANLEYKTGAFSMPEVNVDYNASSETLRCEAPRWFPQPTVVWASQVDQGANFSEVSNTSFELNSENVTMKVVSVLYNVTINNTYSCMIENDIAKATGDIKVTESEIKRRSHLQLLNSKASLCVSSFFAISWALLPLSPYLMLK
The experiment in a line: Affinity to recombinant VTCN1-his by OCTET Red (Protein A biosensors). The class given is binding. Particulars: Table 5. The method, then: The affinity of antibodies to recombinant VTCN1 was determined on an OCTET™ Red (Pall, ForteBio) instrument. After loading reagents into a 96-well plate, the OCTET™ Red with Protein A-conjugated biosensors was programmed as follows: 30 seconds for baseline #1; 45 seconds to immobilize the antibody; 30 seconds for baseline #2; 300 seconds for association of antibody to recombinant VTCN1-his; and 300 seconds for dissociation of recombinant VTCN1-his from the antibody. Table 5 lists the affinity measured for selected antibodies.

Entries after “also recorded” stand apart in the source; their conditions may differ.

B1: 6D9: mouse anti-human VTCN1 antibody; VH SEQ ID NO: 113, VL SEQ ID NO: 117; 6D9 represents 6D9-mIgG2a if not otherwise specified (antibody, V domains shown)
VH: QIQLQQSGPGLVQPSQSLSITCTVSGFSLTSYGVQWIRQSPGKGLEWLGVIWSSGSTDYNAAFLSRLSFSKDNSKSQVFFQMNSLQADDSAIYYCARDVTTIVEGFAHWGQGTLVTVSA
VL: NIVMTQSPKSMSMSVGERVTLSCKASEKVGTYVSWYQQKPEQSPKLLIYGASNRYTGVPDRFTGSGSATDFTLTISSVQVEDLADYHCGQTYSYPFTFGSGTKLEIK
notes: mouse anti-human VTCN1 antibody; 6D9 represents 6D9-mIgG2a if not otherwise specified
Regarding B1, in the experiment with 4T1 tumors, the 4T1 tumor growth entry was “did not show any effect in 4T1 tumor growth”. Moreover, the “primary tumor growth of KLN205 tumors” value in the experiment with KLN205 tumors (Example 13, 10 mg/kg i.p. from day 3) is listed as “inhibits primary tumor growth of KLN205 tumors”. For the same molecule, the “mice surviving at the end of the study on day 36” value in the experiment with KLN205 tumors (Example 14) is given as “one mouse survived”. In addition, the “KLN205 tumor growth, established tumors” value in the experiment with KLN205 tumors (Example 14, 10 mg/kg i.p. from day 8) is recorded as “delayed tumor growth”. For the same molecule, the “mouse survival / time to tumor end point 1500 mm^3” value in the experiment with KLN205 tumors (Example 15) is on record as “prolongs the median time to endpoint irrespective of isotype”. The “KLN205 primary tumor growth, isotype comparison” value in the experiment with KLN205 tumors is given as “inhibits primary tumor growth”. In addition, the “KLN205 primary tumor growth, isotype comparison” value in the experiment on KLN205 tumors (listed as 6D9-mIgG2a) is “inhibit primary tumor growth”. Moreover, in the experiment with Hepa1-6 tumors, the Hepa1-6 tumor growth result is recorded as “inhibits primary tumor growth; also recorded: inhibits tumor growth of Hepa1-6 tumors”. Further, the “cross-reactivity with mouse VTCN1 protein” value with mouse VTCN1 protein is given as “cross-reacts with mouse VTCN1 protein”. For the same molecule, in the experiment with human VTCN1 protein, the “Kdis (human)” value is reported as 1.52 × 10^−3 and the “Kon (human)” value is reported as 6.19 × 10^5.

Source of the values: patent publication US12427163B2, “Anti-VTCN1 antibodies and antibody drug conjugates” (Bluefin BioMedicine, Inc., priority 2017, dated 2025).
